Series [1] concerns the target T1, Thrombin (UniProt P00734;P00734 P00734:328-363,P00734:364-622). The experiment in a line: EMSA; 5 pmol RNA + 25 pmol protein, 37 C 1 h. (In general: Mobility shift assays separate free from complexed probe on a gel.)
Series [2] addresses T2, Factor IXa (UniProt P00740;P00740 P00740:47-191,P00740:227-461). The experiment in a line: EMSA; 37 C 1 h. How it is done:
(§1) Specificity tests of the Th-RNA origami with two proteins (Factor IXa and Xa) involved in the coagulation cascade and one common protein (bovine serum albumin, BSA) were performed. To test specificity, the RNA origami was incubated with protein at 37° C. for one hour and characterized by native acrylamide gel electrophoresis. The non-aptamer presenting on RNA origami (2HF-RNA-NNNN) was not able to bind to all four proteins (FIG. 25). All seven designs of RNA origami with RNA thrombin aptamers (2HF-RNA-12NN, 1N2N, 2NN1, Fss12, 2HF-2211, 3HF-2NN1, and 4HF-2NN1) show the specificity binding with thrombin as results shown in FIGS. 26-28 and FIGS. 42-45).
(§2) For specificity tests, heat-annealed RNA origami or DNA weave tile (5 pmol) was dissolved in 1× annealing buffer and incubated with protein (25 pmol) at 37° C. for 1 hr. The samples were tested by 6% native acrylamide gel electrophoresis in 1×TBE as running buffer at 150 V for 3 hr. The gels were stained with Ethidium bromide for nucleic acid staining and visualized under a UV lamp. Then, the gels were further stained with Coomassie blue for protein staining and imaged with the ProteinSimple instrument.

Series [3] deals with T3, Bovine serum albumin (BSA) (Bos taurus, UniProt P02769 P02769:25-607). The experiment in a line: EMSA; 37 C 1 h. How it is done:
as §1, §2

For series [4], the target named is T4, Factor Xa (UniProt P00742;P00742 P00742:41-179,P00742:235-488). In words: EMSA; 37 C 1 h. How it is done: as §1, §2
T4 sequence (P00742 41-179, chain 1 of 2): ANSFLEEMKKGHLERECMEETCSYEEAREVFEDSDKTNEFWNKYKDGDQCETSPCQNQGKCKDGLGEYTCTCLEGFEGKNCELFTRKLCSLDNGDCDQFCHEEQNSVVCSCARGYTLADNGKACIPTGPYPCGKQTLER
T4 sequence (P00742 235-488, chain 2 of 2): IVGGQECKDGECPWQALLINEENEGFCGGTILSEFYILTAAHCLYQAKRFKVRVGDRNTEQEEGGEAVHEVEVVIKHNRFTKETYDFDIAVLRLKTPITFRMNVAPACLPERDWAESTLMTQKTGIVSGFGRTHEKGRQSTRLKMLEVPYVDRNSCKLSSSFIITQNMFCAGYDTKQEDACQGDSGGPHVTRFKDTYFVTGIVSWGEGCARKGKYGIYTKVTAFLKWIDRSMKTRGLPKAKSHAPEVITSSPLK
The target of series [5] is T2, Factor IXa. In words: EMSA; 5 pmol RNA + 25 pmol protein, 37 C 1 h. The note with it: 2-helix RNA origami with tetraloops and 180 degree kissing loop, no aptamer. How it is done:
as §1, §2

Series [6] deals with T3, Bovine serum albumin (BSA). The experiment in a line: EMSA; 5 pmol RNA + 25 pmol protein, 37 C 1 h. The note with it: 2-helix RNA origami with tetraloops and 180 degree kissing loop, no aptamer. The procedure:
as §1, §2

Series [7] addresses T4, Factor Xa. The experiment in a line: EMSA; 5 pmol RNA + 25 pmol protein, 37 C 1 h. Particulars: 2-helix RNA origami with tetraloops and 180 degree kissing loop, no aptamer. How it is done: as §1, §2
Series [8] concerns the target T1, Thrombin. The experiment in a line: EMSA; 5 pmol RNA + 25 pmol protein, 1x annealing buffer, 37 C 1 h, 6% native PAGE.
Where [9] appears, read: 2-helix RNA origami with exosite 1 and exosite 2 aptamers.
[10] abbreviates: 2-helix RNA origami with exosite 1 aptamer (RNAR9D-14T) and exosite 2 aptamer (Toggle-25t).
[11] abbreviates: two aptamers (exosite 2 and exosite 1) joined by 31 nt single-stranded linker.

This note sets out measurements from patent US20220025373, “COMPOSITIONS AND METHODS RELATED TO NUCLEIC ACID ANTICOAGULANTS” (North Carolina State University, published 2022).

T2 sequence (P00740 47-191, chain 1 of 2): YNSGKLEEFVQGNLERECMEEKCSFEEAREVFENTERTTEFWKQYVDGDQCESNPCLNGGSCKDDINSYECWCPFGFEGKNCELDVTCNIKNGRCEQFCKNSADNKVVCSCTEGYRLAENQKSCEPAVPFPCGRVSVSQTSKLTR
T2 sequence (P00740 227-461, chain 2 of 2): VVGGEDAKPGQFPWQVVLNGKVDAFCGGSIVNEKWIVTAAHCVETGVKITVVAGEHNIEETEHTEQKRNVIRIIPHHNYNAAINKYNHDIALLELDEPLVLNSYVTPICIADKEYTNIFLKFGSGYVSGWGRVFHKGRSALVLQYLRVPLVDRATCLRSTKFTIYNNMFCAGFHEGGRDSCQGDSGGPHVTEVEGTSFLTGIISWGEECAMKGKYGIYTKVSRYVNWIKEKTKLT
T3 sequence (P02769 25-607, one chain of several): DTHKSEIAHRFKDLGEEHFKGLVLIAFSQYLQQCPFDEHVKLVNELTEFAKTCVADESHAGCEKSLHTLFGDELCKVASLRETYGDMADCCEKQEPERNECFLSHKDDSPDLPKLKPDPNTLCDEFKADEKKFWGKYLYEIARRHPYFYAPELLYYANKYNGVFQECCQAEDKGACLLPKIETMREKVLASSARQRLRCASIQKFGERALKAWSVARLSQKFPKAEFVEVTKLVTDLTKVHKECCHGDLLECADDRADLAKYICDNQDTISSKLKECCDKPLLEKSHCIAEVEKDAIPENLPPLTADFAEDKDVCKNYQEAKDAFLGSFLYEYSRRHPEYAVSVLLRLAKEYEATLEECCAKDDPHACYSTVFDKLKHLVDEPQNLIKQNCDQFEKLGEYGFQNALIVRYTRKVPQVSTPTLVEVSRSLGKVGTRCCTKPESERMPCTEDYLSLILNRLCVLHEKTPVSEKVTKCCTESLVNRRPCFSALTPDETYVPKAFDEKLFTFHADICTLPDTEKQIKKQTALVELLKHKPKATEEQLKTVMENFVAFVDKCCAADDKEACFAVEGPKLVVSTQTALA

B1: 2HF-RNA-2NN1 (ssRNA)
RNA: GGGAGAUCGAGCGACUUCCGACUUCGGUCGGGAGUCGGGCUAGUCAUCUUCGGAUGAUUAGCCGCUGGUGAAGCCUCCACGCCAGCCUCGGUCUCCCGCAGUAGGAUCGGACUGAAGGAGGCACGGUCCCAGCCGAAGUGUCUUGCGGGAACAAAGCUGAAGUACUUACCCGCAAGGCACUUUGGCUGCUAGACUGGCUGGCGGCGGUCGAUCACACAGUUCAAACGUAAUAAGCCAAUGUACGAGGCAGACGACUCGCCGCCAGCUAGUUUAGGAUUCUAUUGC
modifications: 2'-F at all C and U
In the case of B1, the binding result is “binds” with Thrombin [1], “no binding” in the series with Factor IXa [2] (setting [9]), “no binding” in series [3] (setting [9]) and “no binding” with Factor Xa [4] (setting [9]).

B2: 2HF-RNA-1N2N (ssRNA)
RNA: GGGAGAUCGAGCGACUUCCGACGGGAACAAAGCUGAAGUACUUACCCGUCGGGAGUCGGGCUAGUCAUCUUCGGAUGAUUAGCCGCUGGUGAAGCCUCCACGCCAGCCUCGGUCUCCCGCAGUAGGAUCGGACUGAAGGAGGCACGGUCCCAGCCGAAGUGUCUGGCGGUCGAUCACACAGUUCAAACGUAAUAAGCCAAUGUACGAGGCAGACGACUCGCCAGGCACUUUGGCUGCUAGACUGGCUGGCUUCGGCCAGCUAGUUUAGGAUUCUAUUGC
modifications: 2'-F at all C and U
Regarding B2, the binding result in the series with Thrombin [1] is recorded as “binds”; with Factor IXa [2] (setting [9]), “no binding”; in series [3] (setting [9]), “no binding”; with Factor Xa [4] (setting [9]), “no binding”.

B3: 2HF-RNA-12NN (ssRNA)
RNA: GGGAGAUCGAGCGACUUCCGACUUCGGUCGGGAGUCGGGCUAGUCAUCGGGAACAAAGCUGAAGUACUUACCCGAUGAUUAGCCGCUGGUGAAGCCUCCACGCCAGCCUCGGUCUCCCGCAGUAGGAUCGGACUGAAGGAGGCACGGUCCCAGCCGAAGUGUCUGGCGGUCGAUCACACAGUUCAAACGUAAUAAGCCAAUGUACGAGGCAGACGACUCGCCAGGCACUUUGGCUGCUAGACUGGCUGGCUUCGGCCAGCUAGUUUAGGAUUCUAUUGC
modifications: 2'-F at all C and U
Turning to B3, the binding result with Thrombin [1] is recorded as “binds”; in the series with Factor IXa [2] (setting [10]), “no binding”; in series [3] (setting [10]) it was “no binding”; in the series with Factor Xa [4] (setting [10]), “no binding”.

B4: 2HF-RNA-NNNN (ssRNA)
RNA: GGGAGAUCGAGCGACUUCCGACUUCGGUCGGGAGUCGGGCUAGUCAUCUUCGGAUGAUUAGCCGCUGGUGAAGCCUCCACGCCAGCCUCGGUCUCCCGCAGUAGGAUCGGACUGAAGGAGGCACGGUCCCAGCCGAAGUGUCUUGCUUCGGCAAGGCACUUUGGCUGCUAGACUGGCUGGCUUCGGCCAGCUAGUUUAGGAUUCUAUUGC
modifications: 2'-F at all C and U
B4: the binding result (in the series with Factor IXa [5]; in series [6]; with Factor Xa [7]; in the series with Thrombin [8]) was “no binding” throughout.

B5: Fss12 (ssRNA)
RNA: GGGAACAAAGCUGAAGUACUUACCCACCUUACCACUCCACCUCACUCACCUAUUACGGCGGUCGAUCACACAGUUCAAACGUAAUAAGCCAAUGUACGAGGCAGACGACUCGCC
modifications: 2'-F at all C and U
Take B5: the binding result in the series with Thrombin [1] is recorded as “binds”; with Factor IXa [2] (setting [11]), “no binding”; in series [3] (setting [11]), “no binding”; with Factor Xa [4] (setting [11]), “no binding”.
